{"source": "paper PMC3950713", "molecules": {"B1": {"name": "dsDNA30 (dsDNA)", "DNA 1": "CCACAACTGGATGATGCGGCGAAGTACTGT", "DNA 2": "ACAGTACTTCGCCGCATCATCCAGTTGTGG"}, "B2": {"name": "dT60 (ssDNA)", "DNA": "TTTTTTTTTTTTTTTTTTTTTTTTTTTTTTTTTTTTTTTTTTTTTTTTTTTTTTTTTTTT"}}, "key": {"[1]": {"target": "HpDprA(5-217), C-terminally truncated Helicobacter pylori DprA (H. pylori strain 26695) (UniProt B5ZAA1)", "assay": "SEC"}, "[2]": {"target": "HpDprA(5-217), C-terminally truncated Helicobacter pylori DprA (H. pylori strain 26695) (UniProt B5ZAA1)", "assay": "crystal structure"}, "[3]": {"target": "HpDprA(5-217), C-terminally truncated Helicobacter pylori DprA (H. pylori strain 26695) (UniProt B5ZAA1)", "assay": "static light scattering"}, "[4]": {"target": "Full-length Helicobacter pylori DprA (DNA processing protein A, HP0333) (H. pylori strain 26695) (UniProt B5ZAA1)", "assay": "SEC"}, "[5]": {"target": "HpDprA(5-225), C-terminally truncated Helicobacter pylori DprA (H. pylori strain 26695) (UniProt B5ZAA1)"}, "[6]": {"target": "HpDprA(5-225), C-terminally truncated Helicobacter pylori DprA (H. pylori strain 26695) (UniProt B5ZAA1)", "assay": "crystal structure"}, "HpDprA(5-217)WT [7]": {"target": "T1, HpDprA(5-217)WT (Helicobacter pylori 26695, UniProt O25100 5-217)", "T1 sequence": "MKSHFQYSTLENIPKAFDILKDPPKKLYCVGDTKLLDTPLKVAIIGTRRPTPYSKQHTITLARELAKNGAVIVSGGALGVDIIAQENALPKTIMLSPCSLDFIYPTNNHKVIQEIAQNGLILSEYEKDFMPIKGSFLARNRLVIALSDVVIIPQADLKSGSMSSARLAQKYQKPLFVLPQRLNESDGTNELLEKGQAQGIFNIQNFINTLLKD", "assay": "EMSA"}, "HpDprA(5-217)WT [8]": {"target": "T1, HpDprA(5-217)WT", "assay": "MST"}, "HpDprA(5-217)WT [9]": {"target": "T1, HpDprA(5-217)WT", "assay": "SEC/SLS"}, "HpDprA full-length": {"target": "T2, HpDprA full-length (Helicobacter pylori 26695, UniProt O25100 1-270)", "T2 sequence": "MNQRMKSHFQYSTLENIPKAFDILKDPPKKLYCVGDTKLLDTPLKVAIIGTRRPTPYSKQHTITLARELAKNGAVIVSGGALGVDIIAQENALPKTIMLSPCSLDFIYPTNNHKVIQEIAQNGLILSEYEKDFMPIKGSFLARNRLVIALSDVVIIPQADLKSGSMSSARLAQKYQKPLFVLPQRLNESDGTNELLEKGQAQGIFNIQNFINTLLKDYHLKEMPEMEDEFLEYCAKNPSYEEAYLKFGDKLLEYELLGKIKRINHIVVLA", "assay": "EMSA"}, "HpDprA(5-217)WT [10]": {"target": "T1, HpDprA(5-217)WT", "assay": "EMSA", "remark": "listed apart in the source"}}, "note": "Where two headings read alike, the source gives them in different places.", "data": [{"molecule": "HpDprA(5-217), C-terminally truncated Helicobacter pylori DprA (from UniProt B5ZAA1 5-217) (domain or fragment)", "values": [{"measurement": "stoichiometry N", "setting": "[1]", "value": 2}, {"measurement": "stoichiometry N", "setting": "[2]", "value": 2}, {"measurement": "stoichiometry N", "setting": "[3]", "value": 2}]}, {"molecule": "Full-length Helicobacter pylori DprA (DNA processing protein A, HP0333) (from UniProt B5ZAA1 1-266) (natural protein)", "values": [{"measurement": "stoichiometry N", "setting": "[4]", "value": 2}]}, {"molecule": "HpDprA(5-225), C-terminally truncated Helicobacter pylori DprA (from UniProt B5ZAA1 5-225) (domain or fragment)", "values": [{"measurement": "stoichiometry N", "setting": "[5]", "value": 2}, {"measurement": "stoichiometry N", "setting": "[6]", "value": 2}]}, {"molecule": "TTTTTTTTTTTTTTTTTTTTTTTTTTTTTTTTTTTTTTTTTTTTTTTTTT (ssDNA)", "note": "[dT50]", "values": [{"measurement": "binding result", "setting": "HpDprA(5-217)WT [7]", "value": "binds"}]}, {"molecule": "TTTTTTTTTT (ssDNA)", "note": "[dT10]", "values": [{"measurement": "binding result", "setting": "HpDprA(5-217)WT [8]", "value": "no binding"}]}, {"molecule": "AAAAAAAAAAAAAAAAAAAAAAAAAAAAAAAAAAA (ssDNA)", "note": "[dA35]", "values": [{"measurement": "Kd", "setting": "HpDprA(5-217)WT [8]", "value": "1200 ± 35.3", "unit": "nM"}]}, {"molecule": "B1", "values": [{"measurement": "Kd", "setting": "HpDprA(5-217)WT [8]", "value": "831 ± 8.48", "unit": "nM"}]}, {"molecule": "TTTTTT (ssDNA)", "note": "[dT6]", "values": [{"measurement": "binding result", "setting": "HpDprA(5-217)WT [8]", "value": "no binding"}]}, {"molecule": "B2", "values": [{"measurement": "binding result", "setting": "HpDprA(5-217)WT [9]", "value": "binds"}]}, {"molecule": "CCACAACTGGATGATGCGGCGAAGTACTGT (ssDNA)", "note": "[dR30]", "values": [{"measurement": "Kd", "setting": "HpDprA(5-217)WT [8]", "value": "370 ± 8.82", "unit": "nM"}]}, {"molecule": "TACCTAACTGGATGAATCTGAGAACTACTGTGAAT (ssDNA)", "note": "[dR35]", "values": [{"measurement": "binding result", "setting": "HpDprA full-length", "value": "binds"}]}, {"molecule": "TTTTTTTTTTTTTTTTTTTTTTTTTTTTTTTTTTTTTTTT (ssDNA)", "note": "[dT40]", "values": [{"measurement": "binding result", "setting": "HpDprA(5-217)WT [7]", "value": "binds"}]}, {"molecule": "TTTTTTTTTTTTTTTTTTTT (ssDNA)", "note": "[dT20]", "values": [{"measurement": "binding result", "setting": "HpDprA(5-217)WT [10]", "value": "binds"}]}]}
